Positions count from the first letter of the chain named. Names may count otherwise.
Assays:
[1] = target: T1, FcγRIIIa extracellular domain with C-terminal His tag (human, UniProt P08637 17-208); experiment: SPR (Biacore), antibody captured on antigen peptide chip, FcγR as analyte; relative binding amount
T1 construct: extracellular domain; also called FcgRIIIa; 3a; not shown: His tag at the C terminus
Procedure: (§1) Analysis of interaction between objective antibody and the FcγR was carried out using Biacore T100 (GE Healthcare). HBS-EP+ (GE Healthcare) was used as the running buffer, and the measurement temperature was set to 25° C. Chips produced by immobilizing the antigen peptide by the amine coupling method to a Series S Sencor Chip CM5 (GE Healthcare), or alternatively, chips produced by allowing preliminarily biotinylated antigen peptides to interact with and immobilize onto a Series S Sensor Chip SA (certified) (GE Healthcare) were used. Antibodies of interest were captured onto an antigen peptide-immobilized chip, and allowed to interact to each FcγR diluted with running buffer. To regenerate and repeatedly use the chip, the antibodies captured on the chip were washed off by reacting 10 mM glycine-HCl, pH 1.5.
(§2) The FcγR-binding activity of each antibody was assessed primarily using as an indicator the FcγR-binding activity and dissociation constant for FcγR.

[2] = target: T2, FcγRIIb extracellular domain with C-terminal His tag (human, UniProt P31994 43-217); experiment: as above
T2 construct: extracellular domain; also called FcgRIIb; 2b; not shown: His tag at the C terminus
T2 sequence (looked up): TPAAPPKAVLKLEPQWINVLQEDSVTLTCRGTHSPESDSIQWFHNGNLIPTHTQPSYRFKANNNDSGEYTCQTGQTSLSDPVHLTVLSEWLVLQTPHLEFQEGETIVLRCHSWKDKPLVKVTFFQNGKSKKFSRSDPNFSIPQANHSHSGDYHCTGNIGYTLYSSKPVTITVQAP
Procedure: as §1, §2

[3] = target: T3, FcγRIIa R (extracellular domain, C-terminal His tag) (human, UniProt P12318 34-217); experiment: SPR (Biacore), antibody captured on antigen-peptide chip, FcγR as analyte; relative binding amount
T3 construct: extracellular domain; also called FcgRIIa R type; 2aR; not shown: His tag attached to the C terminus
T3 sequence (looked up): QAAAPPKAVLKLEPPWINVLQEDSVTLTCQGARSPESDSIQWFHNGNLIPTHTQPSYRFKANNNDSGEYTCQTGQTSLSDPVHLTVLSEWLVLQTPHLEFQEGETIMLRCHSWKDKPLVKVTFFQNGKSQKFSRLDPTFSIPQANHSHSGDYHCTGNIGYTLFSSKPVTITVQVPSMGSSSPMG
Procedure: (§3) The heterodimerized antibodies He Abs in which one of the H chains was introduced with an alteration were assayed for their binding activities to each activating FcγR and inhibitory FcγR according to the method described in Example 4. […] The activating FcγRs in FIGS. 26, 27, 28, and 29 are FcγRIa, FcγRIIa (R), FcγRIIa (H), and FcγRIIIa, respectively.
as §1

[4] = target: T4, FcγRIIb (extracellular domain, C-terminal His tag) (human, UniProt P31994 43-217); experiment: as above
T4 construct: extracellular domain; also called FcgRIIb; 2b; not shown: His tag attached to the C terminus
T4 sequence (looked up): T2 sequence (looked up)
Procedure: as §3, §1

[5] = target: T5, FcγRIIa H (FcγRIIa type H, His at position 131), extracellular domain with C-terminal His tag (human, UniProt P12318 34-217); experiment: SPR (Biacore), antibody captured on antigen-peptide chip, FcγR as analyte; GpH7-A5/GpH7-B3/GpL16-k0 = 100
T5 construct: extracellular domain; also called 2aH; FcgRIIa H; not shown: His tag at the C terminus
T5 sequence (looked up): T3 sequence (looked up) with R134H
Procedure: as §3, §1

[6] = target: T6, FcγRIIb, extracellular domain with C-terminal His tag (human, UniProt P31994 43-217); experiment: as above
T6 construct: extracellular domain; also called 2b; FcgRIIb; not shown: His tag at the C terminus
T6 sequence (looked up): T2 sequence (looked up)
Procedure: as §3, §1

T1 sequence (P08637 17-208): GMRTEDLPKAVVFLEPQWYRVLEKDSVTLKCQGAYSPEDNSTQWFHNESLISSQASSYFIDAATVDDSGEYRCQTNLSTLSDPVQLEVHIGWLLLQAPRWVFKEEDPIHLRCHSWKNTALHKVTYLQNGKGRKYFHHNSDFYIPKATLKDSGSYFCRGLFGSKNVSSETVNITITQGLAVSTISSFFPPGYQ

B1: GpH7-A5/GpH7-B3 variant H268_01G/GpL16-k0 (antibody, human IgG1, kappa)
heavy 1: not shown
heavy 2: not shown
light: DIVMTQSPLSLPVTPGEPASISCQASESLVHSNRNTYLHWYLQKPGQSPQLLIYKVSNRFSGVPDRFSGSGSGTDFTLKISRVEAEDVGVYYCSQNTHVPPTFGQGTKVEIERTVAAPSVFIFPPSDEQLKSGTASVVCLLNNFYPREAKVQWKVDNALQSGNSQESVTEQDSKDSTYSLSSTLTLSKADYEKHKVYACEVTHQGLSSPVTKSFNRGEC
notes: Heterodimerized anti-glypican-3 IgG1; the substitution stands in the GpH7-B3 chain only; also called He Ab
He/Con_3a [1]: 96.7 % of GpH7-A5/GpH7-B3/GpL16-k0 (=100)
He/Con_2b [2]: 144 % of GpH7-A5/GpH7-B3/GpL16-k0 (=100)

B2: GpH7-A5/GpH7-B3 variant T335_12R/GpL16-k0 (antibody, human IgG1, kappa)
heavy 1: not shown
heavy 2: not shown
light: B1 light
notes: Heterodimerized anti-glypican-3 IgG1; alteration in only one H chain (GpH7-B3 side); also called He Ab
He/Con_2aR [3]: 100 % of control (GpH7-A5/GpH7-B3/GpL16-k0 = 100)
He/Con_2b [4]: 91.9 % of control (GpH7-A5/GpH7-B3/GpL16-k0 = 100)

B3: GpH7-A5/GpH7-B3 variant H268_20W/GpL16-k0 (antibody, human IgG1, kappa)
heavy 1: not shown
heavy 2: not shown
light: B1 light
notes: as for B1
He/Con_3a [1]: 82.8 % of GpH7-A5/GpH7-B3/GpL16-k0 (=100)
He/Con_2b [2]: 111 % of GpH7-A5/GpH7-B3/GpL16-k0 (=100)

B4: GpH7-A5/GpH7-B3 variant S337_19Q/GpL16-k0 (antibody, human IgG1, kappa)
heavy 1: not shown
heavy 2: not shown
light: B1 light
notes: as for B2
He/Con_2aR [3]: 106 % of control (GpH7-A5/GpH7-B3/GpL16-k0 = 100)
He/Con_2b [4]: 99.7 % of control (GpH7-A5/GpH7-B3/GpL16-k0 = 100)

B5: GpH7-A5/GpH7-B3 variant K326_08L/GpL16-k0 (antibody, human IgG1, kappa)
heavy 1: not shown
heavy 2: not shown
light: B1 light
notes: Heterodimerized IgG1 (He Ab); mutation only in the GpH7-B3 chain; also called He Ab K326L
He/Con_2aH (relative binding activity) [5]: 92.7 % of control
He/Con_2b (relative binding activity) [6]: 177 % of control

B6: GpH7-A5/GpH7-B3 variant S267_19Q/GpL16-k0 (antibody, human IgG1, kappa)
heavy 1: not shown
heavy 2: not shown
light: B1 light
notes: Heterodimerized IgG1 (He Ab); mutation only in the GpH7-B3 chain; also called He Ab S267Q
He/Con_2aH (relative binding activity) [5]: 61.3 % of control
He/Con_2b (relative binding activity) [6]: 218 % of control

B7: GpH7-A5/GpH7-B3 variant Y300_19Q/GpL16-k0 (antibody, human IgG1, kappa)
heavy 1: not shown
heavy 2: not shown
light: B1 light
notes: Heterodimerized IgG1 (He Ab); mutation only in the GpH7-B3 chain; also called He Ab Y300Q
He/Con_2aH (relative binding activity) [5]: 96.1 % of control
He/Con_2b (relative binding activity) [6]: 108 % of control

B8: GpH7-A5/GpH7-B3 variant T335_05P/GpL16-k0 (antibody, human IgG1, kappa)
heavy 1: not shown
heavy 2: not shown
light: B1 light
notes: as for B2
He/Con_2aR [3]: 104 % of control (GpH7-A5/GpH7-B3/GpL16-k0 = 100)
He/Con_2b [4]: 99.9 % of control (GpH7-A5/GpH7-B3/GpL16-k0 = 100)

B9: GpH7-A5/GpH7-B3 variant P271_10E/GpL16-k0 (antibody, human IgG1, kappa)
heavy 1: not shown
heavy 2: not shown
light: B1 light
notes: Heterodimerized IgG1 (He Ab); mutation only in the GpH7-B3 chain; also called He Ab P271E
He/Con_2aH (relative binding activity) [5]: 63.1 % of control
He/Con_2b (relative binding activity) [6]: 109 % of control

B10: GpH7-A5/GpH7-B3 variant H268_05P/GpL16-k0 (antibody, human IgG1, kappa)
heavy 1: not shown
heavy 2: not shown
light: B1 light
notes: as for B1
He/Con_3a [1]: 76.4 % of GpH7-A5/GpH7-B3/GpL16-k0 (=100)
He/Con_2b [2]: 116 % of GpH7-A5/GpH7-B3/GpL16-k0 (=100)

B11: GpH7-A5/GpH7-B3 variant S298_06M/GpL16-k0 (antibody, human IgG1, kappa)
heavy 1: not shown
heavy 2: not shown
light: B1 light
notes: Heterodimerized IgG1 (He Ab); mutation only in the GpH7-B3 chain; also called He Ab S298M
He/Con_2aH (relative binding activity) [5]: 98.1 % of control
He/Con_2b (relative binding activity) [6]: 102 % of control

B12: GpH7-A5/GpH7-B3 variant H268_03V/GpL16-k0 (antibody, human IgG1, kappa)
heavy 1: not shown
heavy 2: not shown
light: B1 light
notes: as for B1
He/Con_3a [1]: 92.3 % of GpH7-A5/GpH7-B3/GpL16-k0 (=100)
He/Con_2b [2]: 114 % of GpH7-A5/GpH7-B3/GpL16-k0 (=100)

B13: GpH7-A5/GpH7-B3 variant K326_20W/GpL16-k0 (antibody, human IgG1, kappa)
heavy 1: not shown
heavy 2: not shown
light: B1 light
notes: as for B1
He/Con_3a [1]: 84.8 % of GpH7-A5/GpH7-B3/GpL16-k0 (=100)
He/Con_2b [2]: 148 % of GpH7-A5/GpH7-B3/GpL16-k0 (=100)

B14: GpH7-A5/GpH7-B3 variant H268_01G/GpL16-k0 (antibody, human IgG1, kappa)
heavy 1: not shown
heavy 2: not shown
light: B1 light
notes: Heterodimerized IgG1 (He Ab); mutation only in the GpH7-B3 chain; also called He Ab H268G
He/Con_2aH (relative binding activity) [5]: 99.2 % of control
He/Con_2b (relative binding activity) [6]: 144 % of control

B15: GpH7-A5/GpH7-B3 variant P271_08L/GpL16-k0 (antibody, human IgG1, kappa)
heavy 1: not shown
heavy 2: not shown
light: B1 light
notes: Heterodimerized IgG1 (He Ab); mutation only in the GpH7-B3 chain; also called He Ab P271L
He/Con_2aH (relative binding activity) [5]: 86.7 % of control
He/Con_2b (relative binding activity) [6]: 103 % of control

B16: GpH7-A5/GpH7-B3 variant K326_05P/GpL16-k0 (antibody, human IgG1, kappa)
heavy 1: not shown
heavy 2: not shown
light: B1 light
notes: Heterodimerized IgG1 (He Ab); mutation only in the GpH7-B3 chain; also called He Ab K326P
He/Con_2aH (relative binding activity) [5]: 98.8 % of control
He/Con_2b (relative binding activity) [6]: 126 % of control

B17: GpH7-A5/GpH7-B3 variant T335_02A/GpL16-k0 (antibody, human IgG1, kappa)
heavy 1: not shown
heavy 2: not shown
light: B1 light
notes: as for B2
He/Con_2aR [3]: 102 % of control (GpH7-A5/GpH7-B3/GpL16-k0 = 100)
He/Con_2b [4]: 94 % of control (GpH7-A5/GpH7-B3/GpL16-k0 = 100)

From patent US20180155451A1 (published 2018)
